Laboratory results reported in patent US20140072613A1, “Compositions and Methods for Treating Cutaneous Scarring” (priority 2012, published 2014).

Assays:
Test in all cases: cell-based or functional assay
PKCι(h) (human) = PKCι(h) (human) (UniProt P41743)
Mnk2(h) (human) = Mnk2(h) (human) (UniProt Q9HBH9)
RIPK2(h) (human) = RIPK2(h) (human) (UniProt O43353)
TAO1(h) (human) = biological target: T1, TAO1(h) (human) (UniProt Q7L7X3)
T1 sequence (looked up): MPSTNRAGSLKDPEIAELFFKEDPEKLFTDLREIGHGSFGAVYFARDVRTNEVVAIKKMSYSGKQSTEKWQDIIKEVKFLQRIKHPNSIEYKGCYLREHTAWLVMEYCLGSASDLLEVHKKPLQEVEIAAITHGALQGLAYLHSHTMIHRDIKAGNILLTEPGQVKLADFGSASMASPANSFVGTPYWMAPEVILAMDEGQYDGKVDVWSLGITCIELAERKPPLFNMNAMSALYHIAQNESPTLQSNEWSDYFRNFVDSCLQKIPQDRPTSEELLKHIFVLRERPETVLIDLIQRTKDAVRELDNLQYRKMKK

Met(D1246H)(h) (human) = Met(D1246H)(h) (human) (UniProt P08581)
ASK1(h) (human) = ASK1(h) (human) (UniProt Q99683)
Chain of ASK1(h) (human) (Q99683 649-946 limits assumed): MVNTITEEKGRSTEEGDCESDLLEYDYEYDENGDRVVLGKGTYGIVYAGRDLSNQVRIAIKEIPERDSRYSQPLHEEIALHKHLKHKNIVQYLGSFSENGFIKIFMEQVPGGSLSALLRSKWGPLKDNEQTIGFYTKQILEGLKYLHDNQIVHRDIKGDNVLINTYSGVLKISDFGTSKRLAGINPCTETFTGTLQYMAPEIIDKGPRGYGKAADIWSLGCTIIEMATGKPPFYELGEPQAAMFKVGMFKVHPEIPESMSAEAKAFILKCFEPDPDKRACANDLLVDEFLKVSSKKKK

EGFR(T790M)(h) (human) = EGFR(T790M)(h) (human) (UniProt P00533)
Itk(h) (human) = biological target: T2, Itk(h) (human) (UniProt Q08881)
T2 sequence (looked up): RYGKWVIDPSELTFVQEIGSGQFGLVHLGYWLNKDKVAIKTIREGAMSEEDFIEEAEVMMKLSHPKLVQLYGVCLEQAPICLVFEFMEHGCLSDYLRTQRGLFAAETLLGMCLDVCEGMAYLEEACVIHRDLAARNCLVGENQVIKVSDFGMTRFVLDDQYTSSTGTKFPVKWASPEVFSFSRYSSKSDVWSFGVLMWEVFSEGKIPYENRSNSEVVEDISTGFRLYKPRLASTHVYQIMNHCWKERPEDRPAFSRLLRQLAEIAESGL

Flt1(h) (human) = biological target: T3, Flt1(h) (human) (UniProt P17948)
T3 sequence (looked up): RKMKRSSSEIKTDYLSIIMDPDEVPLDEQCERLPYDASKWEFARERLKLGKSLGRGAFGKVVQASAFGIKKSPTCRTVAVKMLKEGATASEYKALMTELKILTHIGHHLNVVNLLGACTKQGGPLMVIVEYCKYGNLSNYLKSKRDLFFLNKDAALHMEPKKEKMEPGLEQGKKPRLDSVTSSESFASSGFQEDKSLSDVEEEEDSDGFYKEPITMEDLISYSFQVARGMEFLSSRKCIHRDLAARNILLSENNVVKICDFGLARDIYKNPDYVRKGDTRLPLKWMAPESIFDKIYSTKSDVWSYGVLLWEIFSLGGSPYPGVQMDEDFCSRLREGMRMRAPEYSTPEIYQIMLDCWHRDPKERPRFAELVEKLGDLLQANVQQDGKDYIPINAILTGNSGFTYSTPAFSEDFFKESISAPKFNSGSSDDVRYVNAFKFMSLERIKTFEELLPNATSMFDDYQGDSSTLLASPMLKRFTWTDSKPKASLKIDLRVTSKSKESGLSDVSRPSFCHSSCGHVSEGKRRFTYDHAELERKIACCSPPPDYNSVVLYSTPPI

AMPKα1(h) (human) = AMPKα1(h) (human) (UniProt Q13131)
PKA(h) (human) = PKA(h) (human) (UniProt P17612)
c-RAF(h) (human) = c-RAF(h) (human) (UniProt P04049)
ALK(h) (human) = ALK(h) (human) (UniProt Q9UM73)
Chain of ALK(h) (human) (Q9UM73 1058-1620 limits assumed): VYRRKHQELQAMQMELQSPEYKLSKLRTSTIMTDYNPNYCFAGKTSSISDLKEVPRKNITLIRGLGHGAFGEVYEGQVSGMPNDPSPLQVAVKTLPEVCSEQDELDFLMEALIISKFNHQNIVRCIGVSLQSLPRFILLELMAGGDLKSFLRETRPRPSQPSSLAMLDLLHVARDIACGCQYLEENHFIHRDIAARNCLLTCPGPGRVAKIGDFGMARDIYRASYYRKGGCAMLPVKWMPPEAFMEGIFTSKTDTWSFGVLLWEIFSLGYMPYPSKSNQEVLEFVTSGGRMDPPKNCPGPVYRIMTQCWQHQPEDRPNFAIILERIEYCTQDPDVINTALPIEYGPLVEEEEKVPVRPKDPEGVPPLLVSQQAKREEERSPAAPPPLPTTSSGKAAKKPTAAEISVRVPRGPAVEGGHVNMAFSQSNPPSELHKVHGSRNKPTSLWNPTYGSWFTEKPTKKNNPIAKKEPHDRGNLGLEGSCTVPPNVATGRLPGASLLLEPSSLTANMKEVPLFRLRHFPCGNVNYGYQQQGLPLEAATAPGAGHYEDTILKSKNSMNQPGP

PRK2(h) (human) = PRK2(h) (human) (UniProt Q16513)
Chain of PRK2(h) (human) (Q16513 501-984 limits assumed): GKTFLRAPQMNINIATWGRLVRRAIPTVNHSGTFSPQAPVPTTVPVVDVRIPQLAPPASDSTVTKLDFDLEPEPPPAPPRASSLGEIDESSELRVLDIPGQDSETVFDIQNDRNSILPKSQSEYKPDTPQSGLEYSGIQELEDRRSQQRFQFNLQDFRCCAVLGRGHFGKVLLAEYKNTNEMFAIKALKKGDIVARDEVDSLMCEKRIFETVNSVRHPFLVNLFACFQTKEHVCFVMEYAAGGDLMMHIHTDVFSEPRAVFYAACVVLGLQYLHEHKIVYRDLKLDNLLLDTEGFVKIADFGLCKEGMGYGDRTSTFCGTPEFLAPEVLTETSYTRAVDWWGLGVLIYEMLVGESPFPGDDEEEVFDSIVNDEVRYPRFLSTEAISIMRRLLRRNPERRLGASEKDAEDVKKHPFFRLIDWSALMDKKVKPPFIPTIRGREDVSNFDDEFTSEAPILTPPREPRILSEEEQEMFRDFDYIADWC

Fms(h) (human) = biological target: T4, Fms(h) (human) (UniProt P07333)
T4 sequence (looked up): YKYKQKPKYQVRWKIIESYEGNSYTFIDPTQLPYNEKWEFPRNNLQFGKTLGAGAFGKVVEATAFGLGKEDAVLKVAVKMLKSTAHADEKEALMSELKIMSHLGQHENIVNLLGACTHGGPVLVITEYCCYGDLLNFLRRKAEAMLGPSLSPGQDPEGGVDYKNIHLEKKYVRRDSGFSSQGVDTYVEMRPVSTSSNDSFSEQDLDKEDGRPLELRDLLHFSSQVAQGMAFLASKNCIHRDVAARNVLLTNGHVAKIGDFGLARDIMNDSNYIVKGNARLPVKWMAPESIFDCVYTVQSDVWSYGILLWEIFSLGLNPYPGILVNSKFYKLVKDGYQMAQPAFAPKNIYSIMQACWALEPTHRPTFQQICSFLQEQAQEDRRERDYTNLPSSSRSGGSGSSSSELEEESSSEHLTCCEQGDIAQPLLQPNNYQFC

LIMK1(h) (human) = LIMK1(h) (human) (UniProt P53667)
Chain of LIMK1(h) (human) (P53667 285-638 limits assumed): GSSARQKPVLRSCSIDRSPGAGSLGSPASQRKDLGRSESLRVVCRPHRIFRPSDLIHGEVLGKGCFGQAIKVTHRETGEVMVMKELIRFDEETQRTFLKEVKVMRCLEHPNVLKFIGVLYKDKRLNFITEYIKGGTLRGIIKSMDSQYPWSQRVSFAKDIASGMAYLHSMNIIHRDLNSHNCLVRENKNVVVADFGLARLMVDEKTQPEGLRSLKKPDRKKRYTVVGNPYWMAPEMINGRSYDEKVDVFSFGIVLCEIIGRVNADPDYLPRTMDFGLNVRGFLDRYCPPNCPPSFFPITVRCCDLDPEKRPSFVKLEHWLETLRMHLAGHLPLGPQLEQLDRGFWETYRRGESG

cKit(V560G)(h) (human) = cKit(V560G)(h) (human) (UniProt P10721)
Chain of cKit(V560G)(h) (human) (P10721 544-976 V560G): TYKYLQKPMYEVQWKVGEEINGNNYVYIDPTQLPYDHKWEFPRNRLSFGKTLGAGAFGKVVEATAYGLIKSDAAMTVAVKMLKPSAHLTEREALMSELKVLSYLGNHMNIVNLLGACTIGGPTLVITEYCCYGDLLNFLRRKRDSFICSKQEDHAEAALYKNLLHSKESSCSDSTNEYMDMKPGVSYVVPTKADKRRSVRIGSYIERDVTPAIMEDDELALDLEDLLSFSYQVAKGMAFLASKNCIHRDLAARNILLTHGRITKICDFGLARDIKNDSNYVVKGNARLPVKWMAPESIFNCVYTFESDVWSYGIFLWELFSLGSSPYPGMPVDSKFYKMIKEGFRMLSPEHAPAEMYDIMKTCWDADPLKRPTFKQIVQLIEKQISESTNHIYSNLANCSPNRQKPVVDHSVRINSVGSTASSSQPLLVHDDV

Met(Y1248C)(h) (human) = Met(Y1248C)(h) (human) (UniProt P08581)
Ret(h) (human) = biological target: T5, Ret(h) (human) (UniProt P07949)
T5 sequence (looked up): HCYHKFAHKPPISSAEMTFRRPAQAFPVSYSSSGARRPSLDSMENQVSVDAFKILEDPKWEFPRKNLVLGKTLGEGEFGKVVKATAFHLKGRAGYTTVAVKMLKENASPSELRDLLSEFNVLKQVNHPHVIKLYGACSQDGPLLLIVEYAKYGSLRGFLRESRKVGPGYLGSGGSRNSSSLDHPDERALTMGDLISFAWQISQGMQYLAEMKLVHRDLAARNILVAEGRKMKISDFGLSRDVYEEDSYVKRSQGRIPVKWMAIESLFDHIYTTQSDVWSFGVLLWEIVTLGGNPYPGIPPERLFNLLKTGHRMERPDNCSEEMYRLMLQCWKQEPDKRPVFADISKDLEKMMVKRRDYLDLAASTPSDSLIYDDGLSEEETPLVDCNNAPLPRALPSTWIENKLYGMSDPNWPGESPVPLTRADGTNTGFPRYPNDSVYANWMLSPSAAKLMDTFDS

Abl(Q252H)(h) (human) = Abl(Q252H)(h) (human) (UniProt P00519)
Chain of Abl(Q252H)(h) (human) (P00519 27-1130 Q252H limits assumed): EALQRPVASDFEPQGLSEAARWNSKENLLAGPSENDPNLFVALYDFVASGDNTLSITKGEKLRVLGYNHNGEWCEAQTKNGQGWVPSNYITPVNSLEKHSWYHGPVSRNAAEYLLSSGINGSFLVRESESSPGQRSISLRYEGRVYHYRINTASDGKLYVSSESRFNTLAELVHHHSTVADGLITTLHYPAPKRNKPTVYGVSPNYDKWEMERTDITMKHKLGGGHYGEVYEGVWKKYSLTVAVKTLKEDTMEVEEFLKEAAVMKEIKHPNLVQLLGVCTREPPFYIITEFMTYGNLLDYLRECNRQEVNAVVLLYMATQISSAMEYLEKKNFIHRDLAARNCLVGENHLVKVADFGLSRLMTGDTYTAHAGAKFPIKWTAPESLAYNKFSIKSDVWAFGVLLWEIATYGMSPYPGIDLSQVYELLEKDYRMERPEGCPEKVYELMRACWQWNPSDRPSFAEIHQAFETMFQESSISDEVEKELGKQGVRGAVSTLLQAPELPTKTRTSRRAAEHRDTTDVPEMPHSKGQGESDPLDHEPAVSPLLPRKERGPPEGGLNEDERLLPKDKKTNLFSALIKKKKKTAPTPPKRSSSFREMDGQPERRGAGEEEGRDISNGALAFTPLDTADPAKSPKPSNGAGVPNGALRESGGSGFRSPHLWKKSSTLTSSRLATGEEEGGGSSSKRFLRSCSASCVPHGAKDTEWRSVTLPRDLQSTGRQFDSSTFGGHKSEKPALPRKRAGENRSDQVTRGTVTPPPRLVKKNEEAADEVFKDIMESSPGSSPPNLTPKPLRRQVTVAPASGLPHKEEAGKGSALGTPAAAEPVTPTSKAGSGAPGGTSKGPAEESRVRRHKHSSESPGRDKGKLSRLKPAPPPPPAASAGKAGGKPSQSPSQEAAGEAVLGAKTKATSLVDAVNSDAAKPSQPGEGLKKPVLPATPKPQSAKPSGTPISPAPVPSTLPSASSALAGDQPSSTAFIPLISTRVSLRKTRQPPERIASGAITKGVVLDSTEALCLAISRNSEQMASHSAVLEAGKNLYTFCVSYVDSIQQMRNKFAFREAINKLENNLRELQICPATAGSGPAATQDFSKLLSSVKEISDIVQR

Chain of PKCι(h) (human) (P41743 whole entry): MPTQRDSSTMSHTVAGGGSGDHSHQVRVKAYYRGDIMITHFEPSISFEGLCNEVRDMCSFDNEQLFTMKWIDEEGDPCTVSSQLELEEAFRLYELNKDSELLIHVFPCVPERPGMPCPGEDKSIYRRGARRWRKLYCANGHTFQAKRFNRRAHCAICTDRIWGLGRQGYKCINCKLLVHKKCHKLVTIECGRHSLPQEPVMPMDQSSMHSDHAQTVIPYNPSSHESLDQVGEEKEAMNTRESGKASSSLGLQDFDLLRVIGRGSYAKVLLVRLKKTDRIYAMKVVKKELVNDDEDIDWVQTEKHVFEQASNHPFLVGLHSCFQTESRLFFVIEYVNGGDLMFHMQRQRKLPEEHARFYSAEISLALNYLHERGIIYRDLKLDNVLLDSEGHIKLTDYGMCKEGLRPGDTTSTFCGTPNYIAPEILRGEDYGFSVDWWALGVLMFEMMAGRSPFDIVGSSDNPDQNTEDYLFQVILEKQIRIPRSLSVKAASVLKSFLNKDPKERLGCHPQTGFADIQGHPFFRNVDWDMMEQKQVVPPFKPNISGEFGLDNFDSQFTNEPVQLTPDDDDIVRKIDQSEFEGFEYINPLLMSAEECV
Chain of Mnk2(h) (human) (Q9HBH9 whole entry): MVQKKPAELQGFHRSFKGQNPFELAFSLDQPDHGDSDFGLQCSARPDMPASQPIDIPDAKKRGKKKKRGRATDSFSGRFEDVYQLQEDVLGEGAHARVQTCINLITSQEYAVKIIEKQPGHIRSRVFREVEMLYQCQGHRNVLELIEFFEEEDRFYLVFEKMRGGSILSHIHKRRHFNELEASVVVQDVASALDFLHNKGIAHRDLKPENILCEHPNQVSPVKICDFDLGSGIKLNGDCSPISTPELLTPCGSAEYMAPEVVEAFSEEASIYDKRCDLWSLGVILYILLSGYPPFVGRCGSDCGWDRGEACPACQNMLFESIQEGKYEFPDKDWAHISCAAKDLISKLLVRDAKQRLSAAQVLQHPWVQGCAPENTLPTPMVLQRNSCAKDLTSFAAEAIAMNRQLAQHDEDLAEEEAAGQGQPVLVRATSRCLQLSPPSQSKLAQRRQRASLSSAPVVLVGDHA
Chain of RIPK2(h) (human) (O43353 1-299 limits assumed): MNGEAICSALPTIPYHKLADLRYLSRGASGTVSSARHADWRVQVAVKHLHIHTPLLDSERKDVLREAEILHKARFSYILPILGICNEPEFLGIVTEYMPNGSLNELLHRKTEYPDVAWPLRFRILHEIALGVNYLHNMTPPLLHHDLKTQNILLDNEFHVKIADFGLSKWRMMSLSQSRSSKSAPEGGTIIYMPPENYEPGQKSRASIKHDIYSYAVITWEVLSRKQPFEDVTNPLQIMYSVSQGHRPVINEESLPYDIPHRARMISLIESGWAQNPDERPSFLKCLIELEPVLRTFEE

A % activity, 100 µM (PKCι(h) (human)) of 7%, a % activity, 100 µM (Mnk2(h) (human)) of 6% and a % activity, 100 µM (RIPK2(h) (human)) of 30% were found for MMI-0500 (peptide) in this work. The % activity, 100 µM (TAO1(h) (human)) was 24%, the % activity, 100 µM (Met(D1246H)(h) (human)) was 150% and the % activity, 100 µM (ASK1(h) (human)) was -4%. The % activity, 100 µM (EGFR(T790M)(h) (human)) was 70%, the % activity, 100 µM (Itk(h) (human)) was 7% and the % activity, 100 µM (Flt1(h) (human)) was 27%. It also gave a % activity, 100 µM (AMPKα1(h) (human)) of 35%, a % activity, 100 µM (PKA(h) (human)) of 118% and a % activity, 100 µM (c-RAF(h) (human)) of 19%. The % activity, 100 µM (ALK(h) (human)) was 12%, the % activity, 100 µM (PRK2(h) (human)) was 7% and the % activity, 100 µM (Fms(h) (human)) was 14%. It also gave a % activity, 100 µM (LIMK1(h) (human)) of 87%, a % activity, 100 µM (cKit(V560G)(h) (human)) of 198% and a % activity, 100 µM (Met(Y1248C)(h) (human)) of 73%. It also gave a % activity, 100 µM (Ret(h) (human)) of 174% and a % activity, 100 µM (Abl(Q252H)(h) (human)) of 40%.
